Test results: the supplement of paper PMC11246515
± gives the standard deviation of the averaged measurements.

Test: total protein half-life in vivo (active degradation + dilution); higher = more stable protein
[1] = E. coli NCM3722 delta-clpP delta-lon delta-hslV, growth: N-lim chemostat, doubling time 6 h
[2] = E. coli NCM3722 delta-clpP, growth: N-lim chemostat, doubling time 6 h
[3] = E. coli NCM3722 delta-hslV, growth: N-lim chemostat, doubling time 6 h
[4] = E. coli NCM3722 delta-lon, growth: N-lim chemostat, doubling time 6 h
[5] = E. coli NCM3722 delta-smpB, growth: N-lim chemostat, doubling time 6 h
[6] = wild type E. coli NCM3722, growth: C-lim chemostat, doubling time 3 h
[7] = wild type E. coli NCM3722, growth: C-lim chemostat, doubling time 6 h
[8] = wild type E. coli NCM3722, growth: C-lim chemostat, doubling time 12 h
[9] = wild type E. coli NCM3722, growth: N-lim chemostat, doubling time 6 h
[10] = wild type E. coli NCM3722, growth: N-lim chemostat, doubling time 12 h
[11] = wild type E. coli NCM3722, growth: P-lim chemostat, doubling time 6 h
[12] = wild type E. coli NCM3722, growth: P-lim chemostat, doubling time 12 h

Row | Sequence | total protein half-life in vivo [1] [h] | total protein half-life in vivo [2] [h] | total protein half-life in vivo [3] [h] | total protein half-life in vivo [4] [h] | total protein half-life in vivo [5] [h] | total protein half-life in vivo [6] [h] | total protein half-life in vivo [7] [h] | total protein half-life in vivo [8] [h] | total protein half-life in vivo [9] [h] | total protein half-life in vivo [10] [h] | total protein half-life in vivo [11] [h] | total protein half-life in vivo [12] [h]
1 | MTDLTAQEPAWQTRDHLDDPVIGELRNRFGPDAFTVQATRTGVPVVWIKREQLLEVGDFLKKLPKPYVMLFDLHGMDERLRTHREGLPAADFSVFYHLISIDRNRDIMLKVALAENDLHVPTFTKLFPNANWYERETWDLFGITFDGHPNLRRIMMPQTWKGHPLRKDYPARATEFSPFELTKAKQDLEMEALTFKPEEWGMKRGTENEDFMFLNLGPNHPSAHGAFRIVLQLDGEEIVDCVPDIGYHHRGAEKMGERQSWHSYIPYTDRIEYLGGCVNEMPYVLAVEKLAGITVPDRVNVIRVMLSELFRINSHLLYISTFIQDVGAMTPVFFAFTDRQKIYDLVEAITGFRMHPAWFRIGGVAHDLPRGWDRLLREFLDWMPKRLASYEKAALQNTILKGRSQGVAAYGAKEALEWGTTGAGLRATGIDFDVRKARPYSGYENFDFEIPVGGGVSDCYTRVMLKVEELRQSLRILEQCLNNMPEGPFKADHPLTTPPPKERTLQHIETLITHFLQVSWGPVMPANESFQMIEATKGINSYYLTSDGSTMSYRTRVRTPSFAHLQQIPAAIRGSLVSDLIVYLGSIDFVMSDVDR | 6.01 ± 0.11 | 7.18 ± 1.1 | 5.883 ± 0.042 | 6.39 ± 0.17 | 6.2 ± 0.22 | 3.32 ± 0.17 | 6.15 ± 0.1 | 11.43 ± 0.014 | 6.33 ± 0.14 | 12.22 ± 0.12 | 6.224 ± 0.032 | 11.84 ± 0.096
2 | MIQKSKIKDLVVFTDENNSKYLNVLNDFLSYNINIIKVFRSIDDTKVMLIDTDYGKLILKVFSPKVKRNERFFKSLLKGDYYERLFEQTQKVRNEGLNTLNDFYLLAERKTLRFVHTYIMIIEYIDGIELCDMPDIDDALKNKIQQSINALHQHGMVSGDPHRGNFIIKNGEVRIIDLSGKRASAQRKAKDRIDLERHYGIKNEIRDLGYYLLVYRKKMRNFMRRLKGKPAR |  | 6.73 ± 0.18 | 5.7 ± 0.17 | 6.35 ± 0.15 | 6.04 ± 0.22 | 3.31 ± 0.043 | 5.885 ± 0.011 | 9.9 ± 1 | 5.86 ± 0.76 | 12.09 ± 0.019 | 5.84 ± 0.34 | 11.8 ± 0.82
3 | MKRVLIPGVILCGADVAQAVDDKNMYMHFFEEMTVYAPVPVPVNGNTHYTSESIERLPTGNGNISDLLRTNPAVRMDSTQSTSLNQGDIRPEKISIHGASPYQNAYLIDGISATNNLNPANESDASSATNISGMSQGYYLDVSLLDNVTLYDSFVPVEFGRFNGGVIDAKIKRFNADDSKVKLGYRTTRSDWLTSHIDENNKSAFNQGSSGSTYYSPDFKKNFYTLSFNQELADNFGVTAGLSRRQSDITRADYVSNDGIVAGRAQYKNVIDTALSKFTWFASDRFTHDLTLKYTGSSRDYNTSTFPQSDREMGNKSYGLAWDMDTQLAWAKLRTTVGWDHISDYTRHDHDIWYTELSCTYGDITGRCTRGGLGHISQAVDNYTFKTRLDWQKFAVGNVSHQPYFGAEYIYSDAWTERHNQSESYVINAAGKKTNHTIYHKGKGRLGIDNYTLYMADRISWRNVSLMPGVRYDYDNYLSNHNISPRFMTEWDIFANQTSMITAGYNRYYGGNILDMGLRDIRNSWTESVSGNKTLTRYQDLKTPYNDELAMGLQQKIGKNVIARANYVYREAHDQISKSSRTDSATKTTITEYNNDGKTKTHSFSLSFELAEPLHIRQVDINPQIVFSYIKSKGNLSLNNGYEESNTGDNQVVYNGNLVSYDSVPVADFNNPLKISLNMDFTHQPSGLVWANTLAWQEARKARIILGKTNAQYISEYSDYKQYVDEKLDSSLTWDTRLSWTPQFLQQQNLTISADILNVLDSKTAVDTTNTGVATYASGRTFWLDVSMKF | 5.87 ± 0.22 | 5.83 ± 0.27 | > 8 |  | 5.751 ± 0.012 | 3.16 ± 0.12 | 6.17 ± 0.26 | 9.31 ± 0.88 | 6.68 | 12.2 ± 1.3 | 6.72 | 14.44 ± 0.031
4 | MIIIRYLVRETLKSQLAILFILLLIFFCQKLVRILGAAVDGDIPANLVLSLLGLGVPEMAQLILPLSLFLGLLMTLGKLYTESEITVMHACGLSKAVLVKAAMILAVFTAIVAAVNVMWAGPWSSRHQDEVLAEAKANPGMAALAQGQFQQATNGSSVLFIESVDGSDFKDVFLAQIRPKGNARPSVVVADSGHLTQLRDGSQVVTLNQGTRFEGTALLRDFRITDFQDYQAIIGHQAVALDPNDTDQMDMRTLWNTDTDRARAELNWRITLVFTVFMMALMVVPLSVVNPRQGRVLSMLPAMLLYLLFFLIQTSLKSNGGKGKLDPTLWMWTVNLIYLALAIVLNLWDTVPVRRLRASFSRKGAV [P0AF98] | 6.78 ± 0.092 |  |  | 6.05 ± 0.35 | 6.02 ± 0.49 | 3.17 ± 0.17 | 5.94 ± 0.35 | 10.4 | 5.9587 ± 0.0048 | 12.6 ± 0.32 | 6.85 ± 0.98 | 12.6 ± 0.65
5 | MATRIEFHKHGGPEVLQAVEFTPADPAENEIQVENKAIGINFIDTYIRSGLYPPPSLPSGLGTEAAGIVSKVGSGVKHIKAGDRVVYAQSALGAYSSVHNIIADKAAILPAAISFEQAAASFLKGLTVYYLLRKTYEIKPDEQFLFHAAAGGVGLIACQWAKALGAKLIGTVGTAQKAQSALKAGAWQVINYREEDLVERLKEITGGKKVRVVYDSVGRDTWERSLDCLQRRGLMVSFGNSSGAVTGVNLGILNQKGSLYVTRPSLQGYITTREELTEASNELFSLIASGVIKVDVAEQQKYPLKDAQRAHEILESRATQGSSLLIP | 6.37 ± 0.98 | 5.12 ± 0.23 | 5.73 ± 0.15 | 5.78 ± 0.78 | 5.28 ± 0.14 | 3.13 ± 0.2 | 5.98 ± 0.24 | 9.65 ± 0.38 | 5.5 ± 0.41 | 10.2 ± 0.47 | 5.84 ± 0.14 | 12.63 ± 0.043
6 | MRLSDYFPESSISVIHSAKDWQEAIDFSMVSLLDKNYISENYIQAIKDSTINNGPYYILAPGVAMPHARPECGALKTGMSLTLLEQGVYFPGNDEPIKLLIGLSAADADSHIGAIQALSELLCEEEILEQLLTASSEKQLADIISRG |  |  |  |  |  | 3.24 ± 0.38 | 4.03 | 8.65 |  |  |  | 
7 | MNFPLIANIVVFVVLLFALAQTRHKQWSLAKKVLVGLVMGVVFGLALHTIYGSDSQVLKDSVQWFNIVGNGYVQLLQMIVMPLVFASILSAVARLHNASQLGKISFLTIGTLLFTTLIAALVGVLVTNLFGLTAEGLVQGGAETARLNAIESNYVGKVSDLSVPQLVLSFIPKNPFADLTGANPTSIISVVIFAAFLGVAALKLLKDDAPKGERVLAAIDTLQSWVMKLVRLVMQLTPYGVLALMTKVVAGSNLQDIIKLGSFVVASYLGLLIMFAVHGILLGINGVSPLKYFRKVWPVLTFAFTSRSSAASIPLNVEAQTRRLGVPESIASFAASFGATIGQNGCAGLYPAMLAVMVAPTVGINPLDPMWIATLVGIVTVSSAGVAGVGGGATFAALIVLPAMGLPVTLVALLISVEPLIDMGRTALNVSGSMTAGTLTSQWLKQTDKAILDSEDDAELAHH | 5.42 ± 0.17 | 4.76 ± 0.058 | 5.07 ± 0.26 | 5 ± 0.65 | 5.38 ± 0.78 | 3.35 ± 0.46 | 6.36 ± 1.8 | 11.4 ± 2 | 4.95 ± 1.1 | 8.91 ± 0.48 | 5.29 ± 0.62 | 7.43 ± 0.75
